Results from patent US20210032329A1.

Experiments:
[1] = molecular target: marmoset SEMA4D-His (marmoset); test: BIACORE; antibody captured with goat anti-human IgG Fc, marmoset SEMA4D-His as analyte
[2] = molecular target: marmoset SEMA4D-His (marmoset); test: BIACORE; antibody captured with goat anti-human IgG Fc, marmoset SEMA4D-His as analyte (second row for this antibody)
[3] = molecular target: cynomolgus monkey SEMA4D-His (cynomolgus monkey); test: receptor blocking; antibody dilution series pre-incubated with SEMA4D-His, binding to 293PLXNB1 cells (Plexin B1) read by flow cytometry
human SEMA4D-His (human) = human SEMA4D-His (human) (UniProt Q92854); test: as above
Chain of human SEMA4D-His (human) (Q92854 22-734 limits assumed): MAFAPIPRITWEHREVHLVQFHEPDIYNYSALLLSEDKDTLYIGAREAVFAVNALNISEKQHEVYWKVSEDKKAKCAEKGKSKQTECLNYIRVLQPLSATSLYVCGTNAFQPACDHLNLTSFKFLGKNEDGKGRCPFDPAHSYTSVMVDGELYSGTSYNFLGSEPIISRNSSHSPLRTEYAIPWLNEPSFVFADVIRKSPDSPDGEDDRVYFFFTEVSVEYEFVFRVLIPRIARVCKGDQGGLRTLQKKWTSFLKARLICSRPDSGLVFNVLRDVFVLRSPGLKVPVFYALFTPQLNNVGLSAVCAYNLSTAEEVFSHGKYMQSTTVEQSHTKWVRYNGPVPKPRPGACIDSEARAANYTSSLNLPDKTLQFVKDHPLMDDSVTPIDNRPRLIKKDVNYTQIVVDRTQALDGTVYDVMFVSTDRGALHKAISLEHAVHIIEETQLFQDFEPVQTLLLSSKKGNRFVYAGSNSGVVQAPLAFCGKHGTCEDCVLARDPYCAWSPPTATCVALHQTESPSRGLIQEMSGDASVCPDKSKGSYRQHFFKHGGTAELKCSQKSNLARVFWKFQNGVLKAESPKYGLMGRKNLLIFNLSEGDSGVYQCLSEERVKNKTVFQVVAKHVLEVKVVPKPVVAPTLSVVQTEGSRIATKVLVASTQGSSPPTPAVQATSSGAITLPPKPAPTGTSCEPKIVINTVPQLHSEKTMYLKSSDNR

mouse SEMA4D-His (mouse) = mouse SEMA4D-His (mouse) (UniProt O09126); test: as above
Chain of mouse SEMA4D-His (mouse) (O09126 24-733 limits assumed): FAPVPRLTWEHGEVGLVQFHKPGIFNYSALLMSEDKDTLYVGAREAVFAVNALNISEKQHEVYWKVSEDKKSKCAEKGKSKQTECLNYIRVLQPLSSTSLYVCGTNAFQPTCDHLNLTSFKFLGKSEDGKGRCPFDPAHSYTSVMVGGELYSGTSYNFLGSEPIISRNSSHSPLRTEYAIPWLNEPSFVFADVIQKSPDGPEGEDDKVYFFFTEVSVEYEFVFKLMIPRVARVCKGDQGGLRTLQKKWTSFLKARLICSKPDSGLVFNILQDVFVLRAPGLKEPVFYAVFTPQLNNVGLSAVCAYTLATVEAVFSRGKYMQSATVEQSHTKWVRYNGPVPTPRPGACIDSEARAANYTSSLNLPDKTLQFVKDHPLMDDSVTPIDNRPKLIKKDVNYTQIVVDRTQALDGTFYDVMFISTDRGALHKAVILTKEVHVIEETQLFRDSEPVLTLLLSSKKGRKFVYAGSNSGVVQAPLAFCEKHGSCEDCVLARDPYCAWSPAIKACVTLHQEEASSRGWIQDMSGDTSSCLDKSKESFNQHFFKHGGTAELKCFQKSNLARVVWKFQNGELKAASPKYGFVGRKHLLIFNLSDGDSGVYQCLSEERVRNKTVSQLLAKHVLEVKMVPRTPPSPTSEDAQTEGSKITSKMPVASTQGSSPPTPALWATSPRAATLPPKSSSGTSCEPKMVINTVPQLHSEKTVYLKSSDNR

rat SEMA4D-His (rat) = test: as above
Chain of rat SEMA4D-His (rat) (chain, as listed by the source): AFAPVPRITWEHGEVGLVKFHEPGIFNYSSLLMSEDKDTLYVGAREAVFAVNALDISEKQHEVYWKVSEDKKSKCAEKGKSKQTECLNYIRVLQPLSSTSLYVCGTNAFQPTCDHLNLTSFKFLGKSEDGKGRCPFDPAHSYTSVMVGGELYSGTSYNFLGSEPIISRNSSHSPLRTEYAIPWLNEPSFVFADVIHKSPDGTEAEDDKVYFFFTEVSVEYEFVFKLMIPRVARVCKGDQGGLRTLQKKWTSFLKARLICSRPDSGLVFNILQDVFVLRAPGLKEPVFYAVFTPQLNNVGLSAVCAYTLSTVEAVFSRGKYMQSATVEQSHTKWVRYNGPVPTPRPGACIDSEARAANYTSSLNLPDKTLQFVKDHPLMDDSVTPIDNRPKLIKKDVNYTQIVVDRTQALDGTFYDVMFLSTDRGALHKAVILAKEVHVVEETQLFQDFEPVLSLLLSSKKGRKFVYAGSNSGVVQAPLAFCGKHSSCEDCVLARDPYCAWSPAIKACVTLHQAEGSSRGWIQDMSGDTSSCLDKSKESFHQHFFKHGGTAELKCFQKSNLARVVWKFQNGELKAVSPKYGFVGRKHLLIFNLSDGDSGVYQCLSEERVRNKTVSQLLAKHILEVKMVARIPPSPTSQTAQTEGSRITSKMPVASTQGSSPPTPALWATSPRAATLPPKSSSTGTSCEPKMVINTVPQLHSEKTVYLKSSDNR

Chain of marmoset SEMA4D-His (marmoset) (chain, as listed by the source): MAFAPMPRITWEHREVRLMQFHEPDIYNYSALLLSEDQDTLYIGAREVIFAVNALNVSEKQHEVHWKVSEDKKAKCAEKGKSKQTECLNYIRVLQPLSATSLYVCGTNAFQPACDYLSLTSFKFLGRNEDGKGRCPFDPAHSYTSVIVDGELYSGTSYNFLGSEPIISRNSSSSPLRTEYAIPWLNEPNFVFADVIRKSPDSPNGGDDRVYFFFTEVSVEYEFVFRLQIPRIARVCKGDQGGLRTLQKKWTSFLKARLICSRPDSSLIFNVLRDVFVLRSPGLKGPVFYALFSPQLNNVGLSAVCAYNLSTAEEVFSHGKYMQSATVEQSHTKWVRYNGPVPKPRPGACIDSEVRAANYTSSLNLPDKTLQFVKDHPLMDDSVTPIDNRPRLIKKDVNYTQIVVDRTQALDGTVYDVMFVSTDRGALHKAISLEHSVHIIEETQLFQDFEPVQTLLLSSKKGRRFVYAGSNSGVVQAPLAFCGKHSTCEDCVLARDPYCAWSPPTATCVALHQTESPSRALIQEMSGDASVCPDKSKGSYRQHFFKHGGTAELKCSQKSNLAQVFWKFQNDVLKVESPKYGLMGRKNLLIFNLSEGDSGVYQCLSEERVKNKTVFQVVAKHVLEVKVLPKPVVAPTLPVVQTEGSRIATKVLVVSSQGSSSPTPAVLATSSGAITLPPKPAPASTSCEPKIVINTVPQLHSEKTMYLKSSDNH

B1: humanized MAb 2503 (VX15/2503) (antibody, INN chains, looked up, V domains shown)
VH: QVQLVQSGAEVKKPGSSVKVSCKASGYSFSDYYMHWVRQAPGQGLEWMGQINPTTGGASYNQKFKGKATITVDKSTSTAYMELSSLRSEDTAVYYCARYYYGRHFDVWGQGTTVTVSS
VL: DIVMTQSPDSLAVSLGERATINCKASQSVDYDGDSYMNWYQQKPGQPPKLLIYAASNLESGVPDRFSGSGSGTDFTLTISSLQAEDVAVYYCQQSNEDPYTFGQGTKLEIK
B1 was tested, and the Ka [1] was 2.06e+08 M⁻¹, the Kd [1] was 4.86 nM and the koff [1] was 0.00118 s⁻¹. The kon [1] was 243000 M⁻¹ s⁻¹, the Ka [2] was 2.4e+08 M⁻¹ and the Kd [2] was 4.17 nM. For the same binder, the koff [2] was 0.00126 s⁻¹, the kon [2] was 302000 M⁻¹ s⁻¹ and the EC50 [3] was 0.5 nM. For the same binder, the EC50 (human SEMA4D-His (human)) was 0.3 nM, the EC50 (mouse SEMA4D-His (mouse)) was 0.4 nM and the EC50 (rat SEMA4D-His (rat)) was 0.6 nM.
